Each block holds one substance with its values, some of them ahead of it.
Legend:
[1] = target: NCAM 1FN3–2FN3 (wild-type FN3 domain tandem of human neural cell adhesion molecule) (human); assay: SPR; Biacore 3000, 25 °C; NCAM 1FN3–2FN3 proteins amine-coupled to a CM4 chip (1800 RU wild type, 1900 RU M610R); analytes FGFR1 D1–D3 or D2–D3 at 1–100 μM; HBS-EP running buffer, analytes in PBS; KD estimated from plateau values at equilibrium, very approximate
[2] = target: FGFR1 D2-D3 (Homo sapiens) (UniProt P11362); settings: cited from earlier work
[3] = target: NCAM 1FN3–2FN3 M610R mutant (human); assay: SEC; size-exclusion chromatography of the purified NCAM 1FN3–2FN3 proteins; data not shown
[4] = target: NCAM 1FN3–2FN3 R690E mutant (human); assay: as above
[5] = target: NCAM 1FN3–2FN3 Y672E mutant (human); assay: as above

Kd [1]: > 100 µM
Substance: FGFR1 D2–D3 (soluble ectodomain construct of fibroblast growth factor receptor 1, residues 151–364) (from UniProt P11362 151-364) (domain or fragment)

stoichiometry N [3]: 2
Substance: NCAM 1FN3–2FN3 M610R mutant (domain or fragment)

stoichiometry N [4]: 2
Substance: NCAM 1FN3–2FN3 R690E mutant (domain or fragment)

The next lines start with the substance.

Substance: NCAM 1FN3-2FN3 (from UniProt P13591)
Kd [2]: 10 µM

Substance: NCAM 1FN3–2FN3 Y672E mutant (domain or fragment)
stoichiometry N [5]: 2
